Data published in patent US6136558A, “Heregulin variants” (Genentech, Inc., priority 1998, dated 2000).
Ends that are not written are not given here.

Key:
[1] = biological target: ErbB-3 receptor-Ig fusion (human) (UniProt P21860); experiment: phage ELISA, ratio to wild-type HRG-β1 177-244 on phage
[2] = biological target: ErbB-4 receptor-Ig fusion (human) (UniProt Q15303); experiment: phage ELISA, ratio to wild-type HRG-β1 177-244 on phage; clone selected on ErbB-4-Ig
ErbB-3-Ig [3] = experiment: Phage ELISA, binding to ErbB-3-Ig; conditions: for Phage ErbB-3 EC50 (wt)/EC50 (mut): relative to wild-type HRG-β1 EGF phage in same run, above 1 = higher affinity than wild-type
Source text: (§1) To produce phage displaying the domains, mutagenesis reaction mixtures were electrotransformed into XL1-Blue™ cells (Stratagene, Inc., La Jolla, Calif.), according to the manufacturer's protocol. The transformed cells were then infected with 10^11 plaque-forming units (pfu) M13K07 helper phage (Promega Corp., Madison, Wis.). […] The phage were resuspended in phosphate-buffered saline (PBS: 0.01 M sodium phosphate, 0.1 M NaCl, pH 7.5).
(§2) Microtiter plates (Nunc Maxisorp™ 96-well plates, Inter Med, Denmark) for phage ELISA were prepared as follows. The wells were precoated overnight with 0.5 μg of rabbit anti-human IgG (Fc gamma fragment-specific) antibodies (Jackson Immunoresearch, West Grove, Pa.) in 100 μL 50 mM NaCO3 (pH 9.6). The wells were blocked for 30 minutes (min) with 200 μL PBS containing 0.1% bovine serum albumin (BSA) and rinsed with wash buffer (PBS containing 0.05% Tween 20™). The wells were then coated with 0.1 μg ErbB-2/3-Ig in binding buffer (PBS, 0.1% BSA, 0.05% Tween 20™) for 1 h, and washed again.
(§3) Following incubation for 2 h at room temperature, plates were washed extensively and treated with a 1:900 dilution of anti-M13 horseradish peroxidase conjugate (Pharmacia, Piscataway, N.J.) for 20 min. The amount of phage binding was determined by assaying horseradish peroxidase activity using o-phenylenediamine dihydrochloride) substrate solution (Sigma Chemical Company, St. Louis, Mo.).
(§4) Alanine-substituted variants were generated by site-directed mutagenesis according to Kunkel et al., Methods Enzymol. […] A series of oligonucleotides was used to generate a series of constructs that expressed a series of variants in which consecutive residues were mutated to alanine.
(§5) In addition, phagemid vectors for use in producing phage displaying mutated HRG-β1 EGFs containing various combinations of the above mutations ("combination variants") were prepared by Kunkel mutagenesis, using templates prepared from several of the above-described variants. […] Some of the variants and combination variants were also tested for relative ErbB-4-Ig affinity to assess specificity.
(§6) The affinities of the variants for ErbB-3-Ig and ErbB-4-Ig were determined to assess specificity.

ErbB-4-Ig [4] = experiment: Phage ELISA, binding to ErbB-4-Ig; conditions: for Phage ErbB-4 EC50 (wt)/EC50 (mut): relative to wild-type HRG-β1 EGF phage in same run, above 1 = higher affinity than wild-type
Source text: as §1, §2, §3, §4, §5, §6

ErbB-3-Ig [5] = experiment: Inhibition of 125I-HRG-β1 177-244 binding to ErbB-3-Ig by soluble protein
Procedure: (§7) The affinities of the Trx-variant fusions for ErbB receptor-Ig fusions were determined by measuring inhibition of ^125 I-HRG-β1 177-244 binding to ErbB-3-Ig and ErbB-4-Ig. Receptor fusions were coated on plates (Nunc Maxisorp C™ break-apart strip wells, Inter Med, Denmark) via anti-human IgG, as described in Example 1 for phage ELISA. Binding assays were carried out with a constant amount of ^125 I-HRG-β1 177-244 (100-300 pM) and varying concentrations (100 pM-4 μM) of unlabeled Trx-variant fusion. Following incubation for 1-3 h at room temperature, plates were washed, and the amount of bound ^125 I-HRG-β1 177-244 in each well was counted on a gamma counter (Isodata, ICN Biomedic Systems, Huntsville, Ala.). For the ErbB-3 binding assays, the blocking buffer was TBST (0.025 M Tris-HC1 [pH 7.5], 0.15 M NaCl, 0.02% Tween 20™) containing 1% BSA; the binding buffer was RPMI 1640™ cell culture media (Gibco-BRL, Gaithersburg, Md.) containing 2 mM glutamine, 100 U/mL penicillin, 100 μg/mL streptomycin, 10 mM HEPES buffer (pH 7.2), 0.2% BSA; and the wash buffer was TBST. For the ErbB-4 binding assays, PBS containing 1% BSA was used as the blocking and binding buffers, and the wash buffer was PBS containing 0.05% Tween 20™.

ErbB-4-Ig [6] = experiment: Inhibition of 125I-HRG-β1 177-244 binding to ErbB-4-Ig by soluble protein
Procedure: as §7

[7] = biological target: ErbB-3 receptor-Ig fusion (human) (UniProt P21860); experiment: phage ELISA, soluble ErbB-3-Ig as competitor (only one value in the row, read as the phage column)
[8] = biological target: ErbB-4 receptor-Ig fusion (human) (UniProt Q15303); experiment: phage ELISA, soluble ErbB-4-Ig as competitor
[9] = biological target: ErbB-2/3 receptor-Ig fusion (ErbB-2/3-Ig); experiment: Phage ELISA, competition with soluble ErbB-2/3-Ig; format: binding; conditions: EGF-like domain displayed monovalently on phage as pIII fusion; soluble ErbB-2/3-Ig competing half of the phage off the plate; average of duplicate experiments
Source text: as §1, §2, §3

ErbB-2/3-Ig = experiment: Inhibition of 125I-HRG binding to ErbB-2/3-Ig by soluble variant
[10] = biological target: ErbB-4 receptor-Ig fusion (human) (UniProt Q15303); experiment: displacement of 125I-HRG-β1 177-244 from ErbB-4-Ig
[11] = biological target: ErbB-3 receptor-Ig fusion (human) (UniProt P21860); experiment: displacement of 125I-HRG-β1 177-244 from ErbB-3-Ig
[12] = biological target: ErbB-2/3 receptor-Ig fusion (human) (UniProt P04626); experiment: phage ELISA, soluble ErbB-2/3-Ig as competitor
[13] = biological target: ErbB-3 receptor-Ig fusion (human) (UniProt P21860); experiment: phage ELISA, soluble ErbB-3-Ig as competitor
[14] = biological target: ErbB-4 receptor-Ig fusion (human) (UniProt Q15303); experiment: phage ELISA, ratio to wild-type HRG8 phage (reference itself)
[15] = biological target: ErbB-3 receptor-Ig fusion (human) (UniProt P21860); experiment: as above
[16] = biological target: ErbB-4 receptor-Ig fusion (human) (UniProt Q15303); experiment: phage ELISA, soluble ErbB-4-Ig as competitor; remark: listed apart in the source
[17] = biological target: ErbB-3 receptor-Ig fusion (human) (UniProt P21860); experiment: displacement of 125I-HRG from ErbB-3-Ig
[18] = biological target: ErbB-4 receptor-Ig fusion (human) (UniProt Q15303); experiment: displacement of 125I-HRG from ErbB-4-Ig
[19] = biological target: ErbB-2/3 receptor-Ig fusion (human) (UniProt P04626); experiment: displacement of 125I-HRG from ErbB-2/3-Ig
[20] = biological target: ErbB-2/3 heterodimers on MCF7 breast cancer carcinoma cells (Homo sapiens (Human), UniProt P04626); experiment: cell-based or functional assay
[21] = biological target: ErbB-4 receptor-Ig fusion (human) (UniProt Q15303); experiment: phage ELISA, ratio to wild-type HRG8 phage
[22] = biological target: ErbB-3 receptor-Ig fusion (human) (UniProt P21860); experiment: phage ELISA, ratio to wild-type HRG8 phage
[23] = soluble HRG-β1 EGF variant free of pIII, inhibition of 125I-HRG binding, read-out: ErbB-3-Ig EC50
[24] = soluble HRG-β1 EGF variant free of pIII, inhibition of 125I-HRG binding, read-out: ErbB-4-Ig EC50
[25] = soluble thioredoxin (Trx) fusion, inhibition of 125I-HRG-β1 177-244 binding, read-out: Sol EC50, binding to the ErbB-3 Receptor
[26] = soluble thioredoxin (Trx) fusion, inhibition of 125I-HRG-β1 177-244 binding, read-out: Sol EC50, binding to the ErbB-4 Receptor

HRG-β1 177-244 L179M on phage (ligand)
EC50 Mut/Wt [1]: 1.2
EC50 Mut/Wt [2]: 1.5

G1: K211R, P213S, N214L (SHLVKCAEKEKTFCVNGGECFMVKDLSNPSRYLCRCSLEFTGDRCQNYVMAS)
Phage ErbB-3 EC50 (wt)/EC50 (mut) (ErbB-3-Ig [3]; phage ELISA): 1.2 ± 0.36
Phage ErbB-4 EC50 (wt)/EC50 (mut) (ErbB-4-Ig [4]; phage ELISA): 1.6

HRG-β1 177-244 H178E on phage (ligand)
EC50 Mut/Wt [1]: 9.5
EC50 Mut/Wt [2]: 1.7

A3: HRG-β1 EGF: S177W, H178E, K181P
EC50 (ErbB-3-Ig [5]; [23]): 4.3 ± 0.2 nM
EC50 (ErbB-4-Ig [6]; [24]): 2.1 ± 0.1 nM

HRG-β1 177-244 V199A on phage (ligand)
EC50 [7]: 27 nM
EC50 [8]: 47 nM

F1: single library F variant: Met198Lys and Met226Ile
EC50 (ErbB-3-Ig [5]; [23]): 0.6 ± 0.04 nM
EC50 (ErbB-4-Ig [6]; [24]): 0.26 ± 0.011 nM

HRG-β1 177-244 H178W with Met in place of 228-231, on phage (ligand)
EC50 Mut/Wt [1]: 1.2
EC50 Mut/Wt [2]: 1.7

HRG-β1 177-244 L179V on phage (ligand)
EC50 Mut/Wt [1]: 1.5
EC50 Mut/Wt [2]: 1.6

HRG8: wild-type HRG-β1 177-228 minimal EGF-like domain; on phage via (GGGS)3 linker to pIII 323, or soluble (SHLVKCAEKEKTFCVNGGECFMVKDLSNPSRYLCKCPNEFTGDRCQNYVMAS; not fully specified; cysteine pairing not given here) [reference compound]
EC50 (ErbB-3-Ig [5]; [23]): 2.3 ± 0.2 nM
EC50 (ErbB-4-Ig [6]; [24]): 1.5 ± 0.1 nM
EC50 (ErbB-3-Ig [3]; phage ELISA, reference value of Table 13, read-out: wild-type HRG-β1 EGF-phage EC50 for ErbB3-Ig): 135 ± 104 nM
Phage ErbB-3 EC50 (wt)/EC50 (mut) (ErbB-3-Ig [3]; phage ELISA): 1
EC50 [9]: 11 nM
ErbB-2/3-Ig EC50 [9]: slight affinity enhancement
EC50 (ErbB-4-Ig [4]; phage ELISA, reference value of Table 13, read-out: wild-type HRG-β1 EGF-phage EC50 for ErbB4-Ig): 163 ± 112 nM
Phage ErbB-4 EC50 (wt)/EC50 (mut) (ErbB-4-Ig [4]; phage ELISA): 1
affinity for the 2/3-heterodimer versus the 3/3 homodimer (ErbB-2/3-Ig; ErbB-2/3-Ig versus ErbB-3-Ig homodimer): approximately 100 fold
EC50 (ErbB-2/3-Ig; soluble HRG-β1 EGF variant free of pIII, inhibition of 125I-HRG binding): 0.033 ± 0.003 nM

B1: TH-WT (thioredoxin fused at its C-terminus to wild-type HRG-β1 146-244) (ligand)
chain: DDDDKAYVSSESPIRISVSTEGANTSSSTSTSTTGTSHLVKCAEKEKTFCVNGGECFMVKDLSNPSRYLCKCPNEFTGDRCQNYVMASFYKHLGIEFMEAEELY
EC50 (ErbB-3-Ig [5]; [25]): 47.6 nM
EC50 (ErbB-4-Ig [6]; [26]): 15.4 nM
EC50 [10]: 15.4 nM
EC50 [11]: 47.6 nM

B2: HRG8 (wild-type HRG-β1 EGF displayed on phage) (ligand)
chain: SHLVKCAEKEKTFCVNGGECFMVKDLSNPSRYLCKCPNEFTGDRCQNYVMAS
EC50 [12]: 11 nM
EC50 [13]: 135 nM
EC50(wt)/EC50(mut) [14]: 1
EC50(wt)/EC50(mut) [15]: 1
EC50 [16]: 163 nM

B3: HRG8 (WT), soluble wild-type HRG-β1 EGF (ligand)
chain: SHLVKCAEKEKTFCVNGGECFMVKDLSNPSRYLCKCPNEFTGDRCQNYVMAS
modifications: ends and bridges not checked; cysteine pairing not given here
EC50 [17]: 2.3 nM
EC50 [18]: 1.5 nM
EC50 [19]: 0.033 nM
KIRA EC50 (tyrosine phosphorylation of the ErbB-2 receptor on MCF7 cells) [20]: 0.212 nM

B4: B3 (phage) (ligand)
chain: SHLVKCGEEREGFCVNGGECFMVKDLSNPSRYLCKCPNEFTGDRCQNYVMAS
EC50(wt)/EC50(mut) [21]: 1.7
EC50(wt)/EC50(mut) [22]: 4.7

B5: I2 (phage) (ligand)
chain: SHLVKCAEKEKTFCVNGGECFMVKDLSNPSRYLCKCPNEFTGDRCQHYVIAS
EC50(wt)/EC50(mut) [21]: 10
EC50(wt)/EC50(mut) [22]: 20

B6: D4 (phage) (ligand)
chain: SHLVKCAEKEKTFCVNGGECYRVKTLSNPSRYLCKCPNEFTGDRCQNYVMAS
EC50(wt)/EC50(mut) [21]: 5
EC50(wt)/EC50(mut) [22]: 2.9

B7: HRG2 (HRG-β1 177-244 displayed on phage) (ligand)
chain: SHLVKCAEKEKTFCVNGGECFMVKDLSNPSRYLCKCPNEFTGDRCQNYVMASFYKHLGIEFMEAEELY
EC50 [12]: 6 nM
EC50 [13]: 13 nM
EC50 [16]: 19 nM

B8: HRG-β1: recombinantly produced HRGβ1 177-244 (wild-type) (protein)
chain: SHLVKCAEKEKTFCVNGGECFMVKDLSNPSRYLCKCPNEFTGDRCQNYVMASFYKHLGIEFMEAEELY
modifications: ends and bridges not checked
EC50 (ErbB-3-Ig [5]; [25]): 9 nM
EC50 (ErbB-4-Ig [6]; [26]): 14.8 nM
EC50 (ErbB-3-Ig [3]; alanine-substituted HRG-β1 177-244 displayed on phage, read-out: Phage EC50, binding to the ErbB-3 Receptor): 13 nM
EC50 (ErbB-4-Ig [4]; alanine-substituted HRG-β1 177-244 displayed on phage, read-out: Phage EC50, binding to the ErbB-4 Receptor): 19 nM
